Paper PMC5615345 (2017)

How the values were obtained:
[1] = target: T1, Methanocaldococcus jannaschii RecJ2 (MJ0831) (Methanocaldococcus jannaschii (strain …, UniProt Q58241)); assay: Ni-NTA pulldown (co-purification)
T1 chain: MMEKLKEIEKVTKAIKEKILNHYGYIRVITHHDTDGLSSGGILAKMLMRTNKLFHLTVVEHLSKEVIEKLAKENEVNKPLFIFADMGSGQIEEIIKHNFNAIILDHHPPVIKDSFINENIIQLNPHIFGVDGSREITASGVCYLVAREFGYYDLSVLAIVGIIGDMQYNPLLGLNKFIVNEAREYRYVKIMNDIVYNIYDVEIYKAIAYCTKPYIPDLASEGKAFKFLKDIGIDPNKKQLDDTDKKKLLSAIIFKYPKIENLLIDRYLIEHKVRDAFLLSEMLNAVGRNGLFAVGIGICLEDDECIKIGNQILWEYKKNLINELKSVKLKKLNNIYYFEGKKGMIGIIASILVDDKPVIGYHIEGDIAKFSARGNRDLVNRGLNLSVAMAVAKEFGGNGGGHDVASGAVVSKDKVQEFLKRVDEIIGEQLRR

[2] = target: T1, Methanocaldococcus jannaschii RecJ2 …; assay: gel filtration (Superdex 200); MST also negative

Binder | binding result [1] | binding result [2]
Methanocaldococcus jannaschii GINS (MJ0248), 6×His tag and sumo domain removed (protein) MRVFIIIIYFRCFSKDHKPYFVITMYESLKNYFFEEIKNDKLLKLPDDFYDDIREYIKNIKDDIELERVKYYFKELRKLRIYKALYLDNERENLLPEELNIIHAIENIVVELKIEETPEFKKPTEIDTPKPIYTINDIDVVKVDKNFPPFTDGTFIYDLNKNDVLSLDRKISHILEKHRIISRIGESYENPEES | no binding | –
Methanocaldococcus jannaschii GINS (MJ0248), tag state not stated (protein) MRVFIIIIYFRCFSKDHKPYFVITMYESLKNYFFEEIKNDKLLKLPDDFYDDIREYIKNIKDDIELERVKYYFKELRKLRIYKALYLDNERENLLPEELNIIHAIENIVVELKIEETPEFKKPTEIDTPKPIYTINDIDVVKVDKNFPPFTDGTFIYDLNKNDVLSLDRKISHILEKHRIISRIGESYENPEES | – | no binding
